The results in this text go back to US20210009982.

The target of the series is T1, mini cellulose-binding protein A (mCbpA), P38058.
T1 chain: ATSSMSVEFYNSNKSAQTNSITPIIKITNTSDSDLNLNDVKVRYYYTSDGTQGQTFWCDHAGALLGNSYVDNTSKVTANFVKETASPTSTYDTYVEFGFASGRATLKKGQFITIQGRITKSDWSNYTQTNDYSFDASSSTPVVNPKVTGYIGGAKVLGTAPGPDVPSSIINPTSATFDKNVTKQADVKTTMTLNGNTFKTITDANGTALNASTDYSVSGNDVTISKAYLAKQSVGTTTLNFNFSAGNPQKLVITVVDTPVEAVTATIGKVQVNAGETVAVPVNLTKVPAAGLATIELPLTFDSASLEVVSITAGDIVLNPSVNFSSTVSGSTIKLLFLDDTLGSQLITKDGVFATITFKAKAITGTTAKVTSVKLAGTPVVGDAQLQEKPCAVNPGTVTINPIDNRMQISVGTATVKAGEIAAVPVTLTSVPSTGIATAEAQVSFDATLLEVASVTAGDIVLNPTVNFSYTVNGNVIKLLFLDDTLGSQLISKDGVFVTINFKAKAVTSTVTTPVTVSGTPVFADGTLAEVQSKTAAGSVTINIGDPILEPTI

B1: arabinose isomerase (LsAraA) linked with the dockerin module of the endo-β-1,4-glucanase B gene (protein)
chain: SLSARVSFKKHVKKGVFIMLNTENYEFWFVTGSQSLYGEETLRSVEKDAKEIVEKLNASRQLPYPIVFKLVATTADNITKVMKEANYNDHVAGVITWMHTFSPAKNWIRGTKLLQKPLLHLATQFLNKIPYDTIDFDYMNLNQSAHGDREYAFINARLRKNNKIISGYWGDEDVQKAMAKWMDVAVAYNESFKIKVVTFADKMRNVAVTDGDKVEAQIKFGWTVDYWGVGDLVAEVNAVSEADIDAKYADLQKEYDFVEGQNTPEKFEHNVKYQIREYFGLKKFMDDRGYTAFTTNFEDLVGLEQLPGLAAQLLMAEGYGFAGEGDWKTAALDRLLKIMAHNEKTVFMEDYTLDLRQGHEAILGSHMLEVDPSIASDKPRVEVHPLDIGDKDDPARLVFTGMQGDAVDVTMADYGDEFKLMSYDVRGNKPEADTPHLPVAKQLWTPKQGLREGAVGWLTVGGGHHTVLSFAVDSEQLQDLSHLFDLTYVNIKTQTQTSYSLGDVNKDGKVNAIDYAVLKSILLGTNTNVDLSVSDMNKDGKVNALDLAVLKKMLLS
As for B1, the “tagatose conversion activity using galactose as a substrate” value is “the degradation activity was increased in the order of mCbpA (M), arabinose isomerase (LsAraA, L) and arabinose isomerase-mCbpA (LM)”.
